Measurements: publication PMC3246441, “Structural Basis of Response Regulator Inhibition by a Bacterial Anti-Activator Protein” (PLoS Biology, 2011)
Residue numbers refer to the chain shown, from its start. In names and notes the source's numbering stands.

T1: RapF-E71A (B. subtilis, UniProt P71002 2-381, E71A)
T1 construct: RapF, Bacillus subtilis, with one alanine substitution; Text S1 may tell
T1 sequence: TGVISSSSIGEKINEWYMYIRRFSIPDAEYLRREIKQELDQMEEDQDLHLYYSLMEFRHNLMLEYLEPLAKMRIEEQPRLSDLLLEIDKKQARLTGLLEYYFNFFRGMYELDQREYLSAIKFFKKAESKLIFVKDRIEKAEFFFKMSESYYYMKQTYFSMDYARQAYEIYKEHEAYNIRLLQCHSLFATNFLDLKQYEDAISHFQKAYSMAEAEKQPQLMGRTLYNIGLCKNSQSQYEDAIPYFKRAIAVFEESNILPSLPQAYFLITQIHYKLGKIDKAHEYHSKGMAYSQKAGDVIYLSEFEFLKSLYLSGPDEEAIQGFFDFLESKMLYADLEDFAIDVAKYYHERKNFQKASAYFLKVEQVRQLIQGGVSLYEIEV

T2: RapF-P27A (B. subtilis, UniProt P71002 2-381, P27A)
T2 construct: RapF, Bacillus subtilis, with one alanine substitution; Text S1 may tell
T2 sequence: T1 sequence with P26A, A70E

B1: ComA-T190A (His-ComA mutant) (natural protein, B. subtilis, UniProt P14204 1-214, looked up)
chain: MKKILVIDDHPAVMEGTKTILETDSNLSVDCLSPEPSEQFIKQHDFSSYDLILMDLNLGGEVNGMELSKQILQENPHCKIIVYTGYEVEDYFEEAIRAGLHGAISKTESKEKITQYIYHVLNGEILVDFAYFKQLMTQQKTKPAPSSQKEQDVLTPRECLILQEVEKGFTNQEIADALHLSKRSIEYSLASIFNKLNVGSRTEAVLIAKSDGVL
notes: ComA, Bacillus subtilis, full length, with one alanine substitution
B2: ComA-N194A (His-ComA mutant) (natural protein, B. subtilis, UniProt P14204 1-214, looked up)
chain: B1 chain with A190T, N194A
notes: as for B1
B3: His-ComA (wild-type full-length ComA with His tag) (natural protein, B. subtilis, UniProt P14204 1-214, looked up)
chain: B1 chain with A190T
notes: ComA response regulator, Bacillus subtilis, full length; Purification of His-ComA is in Text S1; also called ComA2
B4: ComA-Y187A (His-ComA mutant) (natural protein, B. subtilis, UniProt P14204 1-214, looked up)
chain: B1 chain with Y187A, A190T
notes: as for B1
B5: ComA-R157A (His-ComA mutant) (natural protein, B. subtilis, UniProt P14204 1-214, looked up)
chain: B1 chain with R157A, A190T
notes: as for B1
B6: ComA (wild-type full-length ComA, no tag named) (natural protein, B. subtilis, UniProt P14204 1-214, looked up)
chain: B1 chain with A190T
notes: ComA response regulator, Bacillus subtilis, full length; Native PAGE used 'either 10 µM ComA or 10 µM His-ComA as indicated'; Purification of ComA is in Text S1; also called ComAFL
B7: RapF (natural protein, B. subtilis)
chain: GSMTGVISSSSIGEKINEWYMYIRRFSIPDAEYLRREIKQELDQMEEDQDLHLYYSLMEFRHNLMLEYLEPLEKMRIEEQPRLSDLLLEIDKKQARLTGLLEYYFNFFRGMYELDQREYLSAIKFFKKAESKLIFVKDRIEKAEFFFKMSESYYYMKQTYFSMDYARQAYEIYKEHEAYNIRLLQCHSLFATNFLDLKQYEDAISHFQKAYSMAEAEKQPQLMGRTLYNIGLCKNSQSQYEDAIPYFKRAIAVFEESNILPSLPQAYFLITQIHYKLGKIDKAHEYHSKGMAYSQKAGDVIYLSEFEFLKSLYLSGPDEEAIQGFFDFLESKMLYADLEDFAIDVAKYYHERKNFQKASAYFLKVEQVRQLIQGGVSLYEIEV
notes: two heterologous residues (Gly-Ser) derived from the thrombin cleavage signal, left after removal of the N-terminal GST; RapF, Bacillus subtilis, residues 1-381; The purification is told under 'Protein Purification for Crystallization'; Monomer by SE AUC; also called wild-type RapF; source: E. coli BL21, purified (glutathione resin, thrombin cleavage, anion exchange, gel filtration); not shown: …
B8: PhrF peptide (peptide)
peptide: QRGMI
notes: mature PhrF signalling pentapeptide of Bacillus subtilis, cut from the pro-PhrF polypeptide; Free N- and C-termini as printed (NH2-QRGMI-COOH); also called synthetic PhrF peptide; NH2-QRGMI-COOH; source: synthetic peptide (LifeTein)
B9: ComA DNA binding domain (ComAC) (domain or fragment, B. subtilis, UniProt P14204 146-214, looked up)
chain: SSQKEQDVLTPRECLILQEVEKGFTNQEIADALHLSKRSIEYSLTSIFNKLNVGSRTEAVLIAKSDGVL
notes: also called His-ComAC

Columns and labels:
RapF [1] = target: B7; experiment: native gel or EMSA; 10 µM RapF and 10 µM ComA or His-ComA incubated in Buffer A (20 mM Tris pH 8.0, 300 mM NaCl, 5 mM MgCl2, 1 mM DTT, 5% glycerol) 30 min at 4°C; 12% Tris-glycine native PAGE at 4°C, Coomassie; disappearance of the ComA band as indicator; conditions: both partners purified
[2] = target: the molecule itself; experiment: SEC; Superdex 200 HR10/30 in Buffer A; RapF 20 µM, His-ComA 40 µM, incubated 30 min at 4°C; fractions by SDS-PAGE; no PhrF
RapF [3] = target: B7; experiment: native gel or EMSA; native PAGE binding studies with a broad concentration range of RapF and a fixed quantity of ComA (unpublished data), together with the qualitative gels; Kd is an estimate; conditions: both partners purified
RapF-E71A = target: T1, RapF-E71A; experiment: native gel or EMSA; 10 µM RapF and 10 µM ComA or His-ComA incubated in Buffer A (20 mM Tris pH 8.0, 300 mM NaCl, 5 mM MgCl2, 1 mM DTT, 5% glycerol) 30 min at 4°C; 12% Tris-glycine native PAGE at 4°C, Coomassie; disappearance of the ComA band as indicator; conditions: both partners purified
RapF-P27A = target: T2, RapF-P27A; experiment: as above; conditions: both partners purified
[4] = target: B3; experiment: SEC + other: total amino acid analysis; 40 µM RapF and 80 µM His-ComA in Buffer A on Superdex 200 HR10/30; fractions 12.0-13.5 ml, bands separated by SDS-PAGE and excised for total amino acid analysis (unpublished data); conditions: both partners purified
RapF [5] = target: B7; experiment: SEC; Superdex 200 HR10/30 in Buffer A; RapF 20 µM, His-ComA 40 µM, with PhrF 200 µM, incubated 30 min at 4°C; fractions by SDS-PAGE; conditions: both partners purified
RapF [6] = target: B7; experiment: crystal structure; RapF-ComAC co-crystals, vapor diffusion at 20°C, 1∶1 mixture of 100 µM RapF and ComAC; 6% PEG 8,000, 240 mM calcium acetate, 80 mM sodium cacodylate pH 6.5, 20% glycerol; 2.30 Å; conditions: both partners purified

Binder: B1
- binding result (RapF [1]): binds

Binder: B2
- binding result (RapF [1]): binds

Binder: B3
- stoichiometry N [2]: 2

Binder: B4
- binding result (RapF [1]): binds

Binder: B5
- binding result (RapF [1]): binds

Binder: B6
- Kd (RapF [3]): 1 to 10 µM
- binding result (RapF-E71A): binds
- binding result (RapF-P27A): binds

Binder: B7
- stoichiometry N [4]: 1

Binder: B8
- binding result (RapF [5]): binds

Binder: B9
- binding result (RapF [6]): binds
